B1: SEPT2-msfGFP (wild type) (natural protein)
chain: MSKQQPTQFINPETPGYVGFANLPNQVHRKSVKKGFEFTLMVVGESGLGKSTLINSLFLTDLYPERVIPGAAEKIERTVQIEASTVEIEERGVKLRLTVVDTPGYGDAINCRDCFKTIISYIDEQFERYLHDESGLNRRHIIDNRVHCCFYFISPFGHGLKPLDVAFMKAIHNKVNIVPVIAKADTLTLKERERLKKRILDEIEEHNIKIYHLPDAESDEDEDFKEQTRLLKASIPFSVVGSNQLIEAKGKKVRGRLYPWGVVEVENPEHNDFLKLRTMLITHMQDLQEVTQDLHYENFRSERLKRGGRKVENEDMNKDQILLEKEAELRRMQEMIARMQAQMQMQMQGGDGDGGALGHHV
B2: SEPT2NCmut-msfGFP (SEPT2 F20D, V27D) (natural protein)
chain: MSKQQPTQFINPETPGYVGDANLPNQDHRKSVKKGFEFTLMVVGESGLGKSTLINSLFLTDLYPERVIPGAAEKIERTVQIEASTVEIEERGVKLRLTVVDTPGYGDAINCRDCFKTIISYIDEQFERYLHDESGLNRRHIIDNRVHCCFYFISPFGHGLKPLDVAFMKAIHNKVNIVPVIAKADTLTLKERERLKKRILDEIEEHNIKIYHLPDAESDEDEDFKEQTRLLKASIPFSVVGSNQLIEAKGKKVRGRLYPWGVVEVENPEHNDFLKLRTMLITHMQDLQEVTQDLHYENFRSERLKRGGRKVENEDMNKDQILLEKEAELRRMQEMIARMQAQMQMQMQGGDGDGGALGHHV

Target: the molecule itself
Test: native gel or EMSA

| Protein | stoichiometry N |
| --- | --- |
| B1 | 2 |
| B2 | 2 |

Reference: publication doi:10.1101/2022.02.23.481653 (bioRxiv, 2022)
